Key:
[1] = target: GfcB-biotin (from pMCSG7, His6-tag removed, biotinylated) (Escherichia coli O127:H6 str. E2348/69) (UniProt P75884); assay: BLI; biotinylated GfcB on streptavidin sensor, GfcC in solution 0.2-1.6 μM, 25°C, 20 mM Tris-HCl pH 7.5, 150 mM NaCl, 0.1 mg/mL BSA; fit 1:1 and 1:1 with conformational change
[2] = target: GfcD-biotin (from pBH31, His-tag removed, biotinylated) (Escherichia coli O127:H6 str. E2348/69) (UniProt P75882); assay: BLI; biotinylated GfcD on streptavidin sensor, GfcB, GfcC or GfcBC in solution 3.75-60 μM, 25°C, 20 mM Tris-HCl pH 7.5, 150 mM NaCl, 0.1 mg/mL BSA, 0.02% DDM; 1:1 model
[3] = target: GfcC-biotin (from pMCSG7, His6-tag removed, biotinylated) (Escherichia coli O127:H6 str. E2348/69) (UniProt P75883); assay: BLI; biotinylated GfcC on streptavidin sensor, GfcB (C-terminal His6, pETBlue2) in solution 0.1-1.6 μM, 25°C, 20 mM Tris-HCl pH 7.5, 150 mM NaCl, 0.1 mg/mL BSA; fit 1:1 and 1:1 with conformational change
[4] = target: GfcD (expressed from pBH31, residues 22-698, His-tag removed by TEV) (Escherichia coli O127:H6 str. E2348/69) (UniProt P75882); assay: ITC; 160 μM GfcB-GfcC complex injected into 20 μM GfcD, 25°C, 20 mM Tris-HCl pH 7.5, 150 mM NaCl, 0.02% DDM; 1:1 model, n held at 1.0
[5] = target: His6-GfcB (from pMCSG7, tag kept) (Escherichia coli O127:H6 str. E2348/69) (UniProt P75884); assay: cross-linking; purified proteins mixed at 5 μM in 20 mM Hepes, 150 mM NaCl, 0.06% DDM pH 7.5, cross-linked with DSP 1 hour at room temperature, SDS-PAGE, blots with anti-polyhistidine and anti-GfcC
[6] = target: GfcC (expressed from pMCSG7 without signal sequence, His6-tag removed) (Escherichia coli O127:H6 str. E2348/69) (UniProt P75883); assay: ITC; 100 μM GfcB injected into 10 μM GfcC, 25°C, 20 mM Tris-HCl pH 7.5, 150 mM NaCl; 1:1 model

## GfcC (expressed from pMCSG7 without signal sequence, His6-tag removed) (from UniProt P75883 23-248) (natural protein)
[1]
  KD (1:1 with conformational change, binding step): 1.01 µM
  Kd: 0.374 µM
  ka1 (1:1 with conformational change, binding step): 59900 M⁻¹ s⁻¹
  kd1 (1:1 with conformational change, binding step): 0.0603 s⁻¹
  kd2 (1:1 with conformational change, conformational step): 0.015 s⁻¹
  koff: 0.0196 s⁻¹
  kon: 52300 M⁻¹ s⁻¹
[2]
  Kd: 257 µM
  koff: 0.0286 s⁻¹
  kon: 111 M⁻¹ s⁻¹

## GfcB with C-terminal His6-tag expressed from pETBlue2(gfcB) (from UniProt P75884 16-214) (natural protein)
[3]
  KD (1:1 with conformational change, binding step): 0.407 µM
  Kd: 0.175 µM
  ka1 (1:1 with conformational change, binding step): 80400 M⁻¹ s⁻¹
  kd1 (1:1 with conformational change, binding step): 0.0328 s⁻¹
  kd2 (1:1 with conformational change, conformational step): 0.0107 s⁻¹
  koff: 0.0126 s⁻¹
  kon: 71700 M⁻¹ s⁻¹

## GfcB-GfcC heterodimer (from UniProt P75884 16-214; P75883 23-248) (complex)
[4]
  Kd: 28.4 µM
  dH: -7.24 kcal/mol
[2]
  Kd: 9.16 µM
  koff: 0.00716 s⁻¹
  kon: 781 M⁻¹ s⁻¹

## His6-GfcB (from pMCSG7, tag kept) (from UniProt P75884 16-214) (natural protein)
[5]
  stoichiometry N: 2

## GfcB (expressed from pMCSG7 without signal sequence, His6-tag removed) (from UniProt P75884 16-214) (natural protein)
[2]
  Kd: 14.2 µM
  koff: 0.00926 s⁻¹
  kon: 652 M⁻¹ s⁻¹
[6]
  Kd: 0.0998 µM
  dH: -6.92 kcal/mol
  stoichiometry N: 1.01
